Experimental findings from patent publication US20130247232A1 are described below.

The target in assay [1] is MUC5AC (NPC-1 antigen) expressed by SW480 human colorectal tumor cells (human) (UniProt P98088). Put plainly: flow cytometry on SW480 cells. (Flow cytometry measures light scatter and fluorescence of single cells or particles in a stream.)
For assay [2], the target named is MUC5AC (NPC-1 antigen) expressed by LS174T human colorectal tumor cells (human) (UniProt P98088). The assay is described as follows: flow cytometry on LS174T cells.
Assay [3] has as its target MUC5AC (NPC-1 antigen) expressed by CFPAC-1 human pancreatic tumor cells (human) (UniProt P98088). The assay is described as follows: flow cytometry on CFPAC-1 cells.
The target in assay [4] is MUC5AC (NPC-1 antigen) expressed by Colo-205 human colorectal tumor cells (human) (UniProt P98088). Put plainly: flow cytometry on Colo-205 cells.
In assay [5] the target is MUC5AC (NPC-1 antigen) expressed by CFPAC-1 human pancreatic tumor cells (human) (UniProt P98088). The assay is described as follows: FACS, 2 µg/ml isotype control antibody-FITC on CFPAC cells.
For assay [6], the target named is MUC5AC (NPC-1 antigen) expressed by LS174T human colorectal tumor cells (human) (UniProt P98088). Put plainly: FACS, 2 µg/ml isotype control antibody-FITC on LS174 cells.
The target of assay [7] is MUC5AC (NPC-1 antigen) expressed by SW480 human colorectal tumor cells (human) (UniProt P98088). The assay is described as follows: FACS, 2 µg/ml isotype control antibody-FITC on SW480 cells.
Assay [8] addresses MUC5AC (NPC-1 antigen) expressed by Colo-205 human colorectal tumor cells (human) (UniProt P98088). The assay is described as follows: FACS, 2 µg/ml isotype control antibody-FITC on Colo-205 cells.

Sequence of MUC5AC (NPC-1 antigen) expressed by SW480 human colorectal tumor cells (human) (P98088 other isoform, or with tags, fused parts or gaps limits assumed): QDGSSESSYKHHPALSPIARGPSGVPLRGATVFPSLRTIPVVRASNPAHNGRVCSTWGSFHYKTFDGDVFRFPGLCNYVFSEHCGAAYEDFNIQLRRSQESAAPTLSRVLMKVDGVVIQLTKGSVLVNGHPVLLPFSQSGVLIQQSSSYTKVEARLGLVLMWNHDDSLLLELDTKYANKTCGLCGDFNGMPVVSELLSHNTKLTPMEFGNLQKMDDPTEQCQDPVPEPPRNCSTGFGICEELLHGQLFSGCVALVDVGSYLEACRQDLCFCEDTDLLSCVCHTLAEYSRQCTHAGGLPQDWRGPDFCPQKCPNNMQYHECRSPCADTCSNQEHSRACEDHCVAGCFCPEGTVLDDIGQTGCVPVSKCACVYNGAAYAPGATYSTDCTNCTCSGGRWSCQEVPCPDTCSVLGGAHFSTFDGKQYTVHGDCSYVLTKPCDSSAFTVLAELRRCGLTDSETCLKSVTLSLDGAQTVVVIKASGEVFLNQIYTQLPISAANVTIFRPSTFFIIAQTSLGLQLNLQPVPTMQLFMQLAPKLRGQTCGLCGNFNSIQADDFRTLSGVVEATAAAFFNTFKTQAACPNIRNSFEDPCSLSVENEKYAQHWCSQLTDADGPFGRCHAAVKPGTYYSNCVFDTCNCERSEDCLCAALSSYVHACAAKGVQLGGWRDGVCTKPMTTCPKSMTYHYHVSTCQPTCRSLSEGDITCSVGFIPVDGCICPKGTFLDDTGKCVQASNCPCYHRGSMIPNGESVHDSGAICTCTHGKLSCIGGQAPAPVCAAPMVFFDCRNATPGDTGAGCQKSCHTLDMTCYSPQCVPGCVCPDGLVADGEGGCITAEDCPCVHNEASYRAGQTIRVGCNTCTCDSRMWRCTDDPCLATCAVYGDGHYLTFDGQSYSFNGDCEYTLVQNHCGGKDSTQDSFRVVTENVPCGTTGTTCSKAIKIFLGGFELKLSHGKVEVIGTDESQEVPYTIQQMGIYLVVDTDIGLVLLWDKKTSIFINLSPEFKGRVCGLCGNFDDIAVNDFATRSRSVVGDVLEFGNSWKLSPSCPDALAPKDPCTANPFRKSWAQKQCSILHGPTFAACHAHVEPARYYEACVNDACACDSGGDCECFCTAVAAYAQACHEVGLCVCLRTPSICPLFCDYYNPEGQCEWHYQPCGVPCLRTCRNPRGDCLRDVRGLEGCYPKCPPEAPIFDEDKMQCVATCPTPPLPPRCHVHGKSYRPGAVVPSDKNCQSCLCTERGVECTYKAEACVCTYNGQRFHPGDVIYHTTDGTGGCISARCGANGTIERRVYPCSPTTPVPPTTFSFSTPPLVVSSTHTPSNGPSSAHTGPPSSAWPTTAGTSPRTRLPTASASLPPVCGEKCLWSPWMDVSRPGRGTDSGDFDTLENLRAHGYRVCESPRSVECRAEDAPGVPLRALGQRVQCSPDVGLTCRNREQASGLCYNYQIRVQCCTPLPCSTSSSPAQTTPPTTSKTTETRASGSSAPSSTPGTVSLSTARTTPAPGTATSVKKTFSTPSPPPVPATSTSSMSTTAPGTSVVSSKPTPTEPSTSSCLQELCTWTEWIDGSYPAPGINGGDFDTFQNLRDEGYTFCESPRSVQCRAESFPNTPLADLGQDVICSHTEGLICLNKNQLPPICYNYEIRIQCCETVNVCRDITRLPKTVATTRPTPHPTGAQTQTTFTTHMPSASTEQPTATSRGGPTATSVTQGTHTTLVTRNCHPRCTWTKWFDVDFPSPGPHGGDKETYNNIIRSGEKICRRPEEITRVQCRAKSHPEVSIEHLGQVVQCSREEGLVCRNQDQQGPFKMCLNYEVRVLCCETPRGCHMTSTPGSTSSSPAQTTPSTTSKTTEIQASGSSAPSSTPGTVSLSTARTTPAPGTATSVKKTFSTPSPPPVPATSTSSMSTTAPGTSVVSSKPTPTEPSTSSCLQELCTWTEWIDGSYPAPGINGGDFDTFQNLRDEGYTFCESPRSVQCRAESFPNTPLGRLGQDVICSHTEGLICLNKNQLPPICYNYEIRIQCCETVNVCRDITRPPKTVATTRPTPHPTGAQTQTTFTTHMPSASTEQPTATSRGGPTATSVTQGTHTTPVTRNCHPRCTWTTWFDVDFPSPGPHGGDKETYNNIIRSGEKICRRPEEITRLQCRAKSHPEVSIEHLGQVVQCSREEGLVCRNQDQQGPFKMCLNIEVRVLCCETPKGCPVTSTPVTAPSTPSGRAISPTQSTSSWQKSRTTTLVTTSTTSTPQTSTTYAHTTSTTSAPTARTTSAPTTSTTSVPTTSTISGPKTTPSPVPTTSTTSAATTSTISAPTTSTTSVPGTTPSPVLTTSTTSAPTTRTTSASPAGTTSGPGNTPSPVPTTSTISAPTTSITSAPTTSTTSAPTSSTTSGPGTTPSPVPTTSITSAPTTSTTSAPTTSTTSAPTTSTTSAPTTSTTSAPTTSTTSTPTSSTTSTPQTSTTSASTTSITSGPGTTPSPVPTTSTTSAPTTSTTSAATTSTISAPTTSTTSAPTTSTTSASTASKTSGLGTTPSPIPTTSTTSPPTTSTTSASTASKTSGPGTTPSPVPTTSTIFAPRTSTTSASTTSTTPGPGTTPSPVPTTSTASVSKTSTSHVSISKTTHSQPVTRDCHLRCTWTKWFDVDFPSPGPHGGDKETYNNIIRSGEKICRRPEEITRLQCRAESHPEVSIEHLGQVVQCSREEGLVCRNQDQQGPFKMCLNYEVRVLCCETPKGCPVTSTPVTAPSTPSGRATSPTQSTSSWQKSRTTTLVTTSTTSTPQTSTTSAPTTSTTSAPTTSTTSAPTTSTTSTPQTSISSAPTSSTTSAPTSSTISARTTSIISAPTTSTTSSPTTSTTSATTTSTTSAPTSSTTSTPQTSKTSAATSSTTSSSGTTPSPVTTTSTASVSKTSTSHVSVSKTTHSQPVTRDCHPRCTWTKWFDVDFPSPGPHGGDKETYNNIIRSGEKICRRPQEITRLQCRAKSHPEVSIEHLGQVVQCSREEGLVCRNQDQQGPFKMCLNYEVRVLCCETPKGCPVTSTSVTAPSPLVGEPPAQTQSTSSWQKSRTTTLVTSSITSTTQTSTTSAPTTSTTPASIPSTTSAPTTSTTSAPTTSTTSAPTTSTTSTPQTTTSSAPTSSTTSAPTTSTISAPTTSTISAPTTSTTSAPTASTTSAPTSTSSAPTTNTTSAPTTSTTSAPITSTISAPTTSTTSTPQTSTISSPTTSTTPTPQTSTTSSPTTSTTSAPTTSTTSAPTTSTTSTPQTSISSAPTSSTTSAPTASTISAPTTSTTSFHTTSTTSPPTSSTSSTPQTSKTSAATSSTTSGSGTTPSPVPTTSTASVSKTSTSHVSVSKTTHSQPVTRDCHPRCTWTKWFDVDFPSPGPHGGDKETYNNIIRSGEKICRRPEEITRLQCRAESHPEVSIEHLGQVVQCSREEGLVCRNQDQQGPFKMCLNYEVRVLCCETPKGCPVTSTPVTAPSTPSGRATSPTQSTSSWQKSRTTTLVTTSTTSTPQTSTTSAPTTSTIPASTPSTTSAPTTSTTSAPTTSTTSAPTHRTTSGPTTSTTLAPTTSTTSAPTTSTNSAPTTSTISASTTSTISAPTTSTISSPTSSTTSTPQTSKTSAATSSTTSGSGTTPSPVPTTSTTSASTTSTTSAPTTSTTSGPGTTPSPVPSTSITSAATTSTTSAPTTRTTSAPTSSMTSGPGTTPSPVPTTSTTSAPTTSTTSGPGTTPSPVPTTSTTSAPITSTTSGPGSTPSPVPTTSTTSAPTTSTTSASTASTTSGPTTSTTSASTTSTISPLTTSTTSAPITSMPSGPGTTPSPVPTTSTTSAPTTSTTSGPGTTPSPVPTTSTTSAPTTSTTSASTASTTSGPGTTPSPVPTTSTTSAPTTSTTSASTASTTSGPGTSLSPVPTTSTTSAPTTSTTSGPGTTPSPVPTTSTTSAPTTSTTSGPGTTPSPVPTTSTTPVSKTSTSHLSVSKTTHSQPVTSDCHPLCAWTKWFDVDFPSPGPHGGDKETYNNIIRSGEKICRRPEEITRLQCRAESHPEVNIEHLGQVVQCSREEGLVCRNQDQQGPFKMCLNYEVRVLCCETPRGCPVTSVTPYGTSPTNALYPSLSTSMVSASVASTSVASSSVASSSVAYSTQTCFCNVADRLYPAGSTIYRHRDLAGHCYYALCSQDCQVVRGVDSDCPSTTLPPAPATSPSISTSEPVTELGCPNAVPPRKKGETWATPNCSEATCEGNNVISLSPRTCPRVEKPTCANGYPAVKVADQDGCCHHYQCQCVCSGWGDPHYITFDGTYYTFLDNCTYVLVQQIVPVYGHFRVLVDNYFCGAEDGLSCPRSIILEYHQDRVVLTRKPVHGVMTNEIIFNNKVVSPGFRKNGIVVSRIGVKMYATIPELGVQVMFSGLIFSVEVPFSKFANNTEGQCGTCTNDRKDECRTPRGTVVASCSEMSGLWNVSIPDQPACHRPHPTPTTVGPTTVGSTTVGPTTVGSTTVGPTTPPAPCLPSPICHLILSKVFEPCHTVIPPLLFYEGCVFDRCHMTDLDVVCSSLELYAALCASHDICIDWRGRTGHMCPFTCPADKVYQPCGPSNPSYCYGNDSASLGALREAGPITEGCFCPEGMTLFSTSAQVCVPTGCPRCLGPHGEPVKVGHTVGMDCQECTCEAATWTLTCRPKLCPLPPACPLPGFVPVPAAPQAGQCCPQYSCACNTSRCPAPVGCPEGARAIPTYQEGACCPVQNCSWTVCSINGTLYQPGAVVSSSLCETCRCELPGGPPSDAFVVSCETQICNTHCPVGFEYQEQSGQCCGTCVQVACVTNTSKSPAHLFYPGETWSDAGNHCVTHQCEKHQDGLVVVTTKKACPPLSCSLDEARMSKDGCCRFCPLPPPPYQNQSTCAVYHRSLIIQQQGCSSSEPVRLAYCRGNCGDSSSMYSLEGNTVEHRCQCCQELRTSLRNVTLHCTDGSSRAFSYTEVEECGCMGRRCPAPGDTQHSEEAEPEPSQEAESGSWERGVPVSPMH
Sequence of MUC5AC (NPC-1 antigen) expressed by CFPAC-1 human pancreatic tumor cells (human) (P98088 other isoform, or with tags, fused parts or gaps limits assumed): as above
Sequence of MUC5AC (NPC-1 antigen) expressed by Colo-205 human colorectal tumor cells (human) (P98088 other isoform, or with tags, fused parts or gaps limits assumed): as above
Sequence of MUC5AC (NPC-1 antigen) expressed by LS174T human colorectal tumor cells (human) (P98088 other isoform, or with tags, fused parts or gaps limits assumed, change not shown): as the sequence (P98088 other isoform, or with tags, fused parts or gaps limits assumed) above

As for Isotype control antibody, the mfi worked out at 56 mfi in assay [1], 35 mfi in assay [2], 25 mfi in assay [3] and 34 mfi in assay [4]. Further, the Percent positive was determined as 1.79% in assay [5], 3.85% in assay [6], 3.38% in assay [7] and 2.33% in assay [8].
